We go through 4 substances from article PMC4550699.

For assay [1], the target named is RFP_PCNA1 (Arabidopsis thaliana) (UniProt Q9M7Q7). Description: FRET or BRET; FLIM-FRET in nuclei of transiently transformed N. benthamiana leaf cells; donor GFP fusion, acceptor RFP fusion; E = (1 - tauDA/tauD) x 100%; FRET efficiency of free GFP/RFP (1.19%) used as threshold. (In BRET a luciferase serves as donor, and the signal depends on an acceptor being close.)

In assay [2] the target is RFP_PCNA2 (Arabidopsis thaliana) (UniProt Q9ZW35). The assay is described as above.
Sequence of UniProt Q9ZW35 (Q9ZW35 whole entry): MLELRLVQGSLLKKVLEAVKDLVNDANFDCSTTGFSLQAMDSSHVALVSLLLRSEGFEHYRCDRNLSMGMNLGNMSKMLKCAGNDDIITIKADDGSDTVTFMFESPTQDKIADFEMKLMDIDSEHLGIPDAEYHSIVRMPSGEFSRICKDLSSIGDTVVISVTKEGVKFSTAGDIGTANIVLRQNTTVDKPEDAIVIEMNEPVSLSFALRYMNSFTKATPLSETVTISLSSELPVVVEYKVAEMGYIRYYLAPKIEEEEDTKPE

Sequence of UniProt Q9M7Q7 (Q9M7Q7 whole entry, the tested form may be a part): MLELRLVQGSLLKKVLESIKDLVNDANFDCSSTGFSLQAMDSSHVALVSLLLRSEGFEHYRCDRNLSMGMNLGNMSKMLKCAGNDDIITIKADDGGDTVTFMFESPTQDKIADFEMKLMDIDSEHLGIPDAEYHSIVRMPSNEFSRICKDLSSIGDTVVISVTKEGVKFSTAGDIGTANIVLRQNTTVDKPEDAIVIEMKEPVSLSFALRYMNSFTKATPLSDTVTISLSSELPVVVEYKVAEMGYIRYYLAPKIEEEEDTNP

On to “CycD4;1_GFP (from UniProt Q8LGA1 1-308) (natural protein)”, for which the FRET efficiency in assay [1] was determined as 3.95%; in assay [2], 1.98%.

For the substance “CycD4;2_GFP (from UniProt Q0WQN9 1-298) (natural protein)”, the FRET efficiency in assay [1] was found to be 3.56%; in assay [2], 5.14%.

As for “CycD6;1_GFP (from UniProt Q9ZR04 1-302) (natural protein)”, the FRET efficiency came to 4.1% in assay [1] and 2.87% in assay [2].

Consider “CycD7;1_GFP (from UniProt Q9LZM0 1-341) (natural protein)”, for which the FRET efficiency in assay [1] was determined as 6.25%; in assay [2], 3.75%.
